The record followed here is a protein production outcome set (Wang et al. 2014).
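Also: failed if final PepcDB status was selected cloned or expressed and not failed if soluble or beyond.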

The data set in a line: label from the status in PepcDB records.
As to “MEKLKSLIPEDLLQTVKSSSVDDLLSTSSSLLRLFLGLPQFHQAVSELANPELGCCGKNEETSLDLKRRGNHCFRSRDFDEALRLYSKALRVAPLDAIDGDKSLLASLFLNRANVLHNLGLLKESLRDCHRALRIDPYYAKAWYRRGKLNTLLGNYKDAFRDITVSMSLESSLVGKKQLQNELKAIPDYQNNQTLEHDEYRPSNDAGVDHLPSVQMEVKLRCVSTKEKGRGMVSECDIEEASVIHVEEPFSVVISKSCRETHCHFCLNELPADTVPCPSCSIPVYCSESCQIQSGGMLSTNEMDKHHIFQKLPDDIVEHIKGVTSADIYYFATDLIQEHQHECRGANWPAVLPSDAVLAGRIIMKLINQGKAATDLSNLQEILELSHTYSKMNPENKLELHLLSIVLIWCLSKSSCPNLSVCEASVTQTIILLSQIKVNSIAVARMKSSGDSFKCLPSGNISTKEPIQSLEQIRVGQALYKTGSLFNHSCKPNIHLYFLSRGLIMQTTEFVPTGCPLELSYGPEVGKWDCKNRIRFLEEEYFFHCRCRGCAQINISDLVINGYGCVNTNCTGVVLDSNVATCESEKLNHFFTAPRNVDQQVQMREKVYADVGEVASSLLSKPSGSLHIEPEICLKCGSRCDIENSHAEVNKAWNHMRRVEELMNSGRANYSVLSDCSRSIAVLRTFLHMYNKDIADAEDKVAQACYLAGELVDARKHCEASIKILKRLYEDEHVVIGNEMVKLASIQLASGDSSGAWDTTKRSSQIFSKYYGSHAETLFSYLPCLKQETAKAVNLSTS”, the protein production result is on record as “failed”.
“MMFEGIRIARQMGHNIAIVSPRVDVIIEISHRIKDAFIDEHIDVLHQSSRQQYNGHFVIATIHQLLRFKQHFDTVFVDEVDAFPLSMDPQLSNAIQLASKSNHSHIFMTATPPRHFLKQFPPEKIIKLPARFHRSPLPIPKFKYFKLKSTRKQNLLLNIFRYQINQQRFTLVFINNIEIMNKMYQQYKMDIPDLICVHSEDDLRFEKIEALRRGQHKIVFTTTILERGFTMTHLDVVVVDAGSFQQEALIQIAGRVGRKQQSPSGLVLFLHEGVTLSMILAKRNIISMNRLAIKRGWIDA”: the protein production entry was “failed”.
Under “MRSVRKRTVLVSTLLALVLTQVARADDKGSHPAVIGDVHFKVECNATAQAKFNVAVAYYHSFQWQRVIATADDVLKVDPTCGMAHWVKALAMLDNPFAWPVTLSEKAIAEGPVLLDAARKAGLKTQRERDYVDALAIFFKDLNTTNYRERAESFEKAMAQLAQQNADDSEATVLYALILSRNFDPTDKTYRNQLHAAELLEPIFAREPNHPGVAHYLIHSYDYPPLAKRGIDAARKYAKIAPDTPHSLHMPSHIFTLTGFWQESIDTNRRAAEMADDSITHDGHHASDYMVYAHLQLGQDLAARKIMEQEQVRHGIDMIGVAYPYAAIPARIALERRAWREAADLPLYARDTYPWKKYPQAEAVNAFARGVGSAMSGEPAKANFEAKRLIKLRDAATAMKLNYWADQIDIQAEVVRGLADFAEGKRDEGIAILHRAAEREDASAKNVVTPGPVVPAREMLATILERDRKPADALAEFEKVLEQHPNRYRTIAGAAQNAKQAGNEQKADHYAELLLKLAEHADSPRPEIAEAKSMLGM” stands “failed”.
Take “MKPFMNNTKQLKRPLLNKQELALFAATILWGITFLVIHIAVRYSGPLFFVGFRFMVASLICGAIFWRSLKGITVYEIFAGMAIGLGMFLGYALQATGLQTIISSQSAFITALYVPIVPILQWIVFKKPPRLACWLGIIFAFIGLILISGKKSGSFDFSKGEILTLLGALAIAGEVILIGIFAHKVDSRRVTIIQLFFSGLFSFFCMPFIGESIPPFSWVWLNIGIGLALMSAIIQLAMNWAQKSISPTRATLIYAGEPVWAGIVGRLAGEHLSPLALLGGALILIGIVVAELQPSQWRKKKNNLKK”: the protein production result is given as “failed”.
Next, “MPGIDIVIVNWNSGNQLRECLRSIGNLVGEAEPLTVTVVDNASCDGSADGLPEPSCPLRVIRNRANLGFGRASNLGAREGSADYLLFLNPDTRLHPGALSIPLGFMESETGRHVGICGVQCLDETGGVARCCARFPTAWRLVGQALGLDRLFPRWIPPHFLGEWPHDSDRDVDQVIGAFFFVRRAVFEQLGGFDERFFVYYEDLDFALRARRAGWGSRYLAGARIFHRGGGVSRQISARRLHYLTHSKLRYARKHFAGIDAFLVSAAVLLLEPLARSAYALGRGRPGEFADTWKAFGGLYASLCRPGENGRLEHHHHHH”: “failed”; “MGVVLARGAFRERSMLTLPDFPLPDARGRFGPYGGRYVPETLIPALEELEAAYREAKKDPAFLEELDHYLRQFAGRPTPLYHAKRLSEYWGGAQVFLKREDLLHTGAHKINNTLGQALLARRMGKRRVIAETGAGQHGVSVATVAALFGLECVVYMGEEDVRRQALNVFRMKLLGAEVRPVAAGSRTLKDATNEAIRDWITNVRTTFYILGSVVGPHPYPMMVRDFQSVIGEEVKRQSLELFGRLPDALIAAVGGGSNAIGLFAPFAYLPEGRPKLIGVEAAGEGLSTGRHAASIGAGKRGVLHGSYMYLLYDHDGQITPAHSVSAGLDYPGVGPEHSYYADAGVAEYASVTDEEALEGFKLLARLEGIIPALESAHAIAYAAKVVPEMDKDQVVVINLSGRGDKDVTEVMRLLGGEL”: “not failed”; “MKITWFGHACFALEMEGKTIVTDPFDESVGYPIPNVTADVVTESHQHFDHNAHHLVKGNFRVIDRPGAYTVNGVKIKGVETFHDPSHGRERGKNIVFVFEGEGIKVCHLGDLGHVLTPAQVEEIGEIDVLLVPVGGTYTIGPKEAKEVADLLNAKVIIPMHYKTKYLKFNLLPVDDFLKLFDSYERVGNILELFEKPKERKVVVMEVQ”: “not failed”.
For the sequence “MSYVDISYYKDNFKGDILNDDTLENRLERASDQIDKLTYNRIIGVEFKNLSPFQQDKIKKAVCLQAEFIEQYGEFINMPLSGFSAGSTSVSFNGSIVNGITTTQEVINYIYQTGLNSRRILEHHHHHH”, the protein production entry is on record as “failed”.
Next, “MTKTLRTPEHVYLCQRLRQARLDAGLTQADLAERLDKPQSFVAKVETRERRLDVIEFAKWMAACEGLDVVSEIVATIAEGRAQA”: “not failed”; “MYVTIVYASVKTDKTEAFKEATRMNHEQSIREPGNMRFDILQSADDPTRFVLYEAYKTRKDAAAHKETAHYLTWRDTVADWMAEPRKGVIYGGLYPTGDD”: “not failed”.
Under “MATAALSAARPNRLSSASSDVPLHPLYLPTKLQFPSRKTQLWRSAAILLPTRRRCAPPRASSRADDSPPFDMSVETALKVLGVSEGASFDEILRAKKSILASRKDDPNAISQAEAAYDMLLMQSLNQRRAGKVVSNNIRYADVKSSNPLGTSTVTQWMKNPPVSVDMPSTSDLGIQAGVYGAMMVLTYVNGSSFESSGMPYAGADVPGLILASSFGASLYFMTKKKVKLGKAAALTAGGLVAGAVVGSAIETWLHVDVVPFLGLHSPAAVVSEFIVFSQFLVSLCLR” stands “failed”; under “EQDIVANGGEVLGSETVGDVSLFFLNPVGHIHHWVTDAWGGSAELKFNSSPWFGNQDVAKFAMDAGASYDSQFYGVELKVTF”, “failed”.
Next, “MGHHHHHHSHMKALLSIEMDMQVPFHDVDSMGITWHGNYLRYFEVARCKLLDELGYNYRQMRASNYAWPIIDVQIKYVKPSTFEQHITVRAELVEWENRLKINYQIRDTATGERITKGYTIQAAVDMTSQEMCFVTPEVFRSKIAPLLAKVDNE”: “not failed”; “MNLGQWIGLIALILSLYILWQIKEVLLLMFAAVVLATTLNRLAKRFQRSGMKRGWAVMLAVAIFFAVVVGFFWLIVPPFAEQFNELTYRVPQGFERFNAWINELRTRIPAQLVPYIPDLNSLIQQAQPFINRVLGSSFAIVSGSLEVVLKVLLVLVLTGMLLADPIAYRKVFVRLFPSFYRRRVDGILDQCEVSLEGWVTGAVIAMGVVGLMSVVGLSILGVKAALALGVLAGFLNLIPNLGPTLSVVPAMAIALLDSPWKVVAVLILYFIIQQAESNFITPIVMAQQVSLLPAVTLISQLFFVTFFGFLGLFLALPLTVVAKIWVQEVLIKDVLDEWGHDHSQESELVMVSHYSEGDDHWSDDKQANKPTDDTVSQED”: “failed”.
With “MTLVTALIVLLVVLGVFFTLVAAVGVLRLPDVYTRSHAATKADTLGAGFAIAAVGLYFGTAGELVRAGLLLVFIYVTNPTAAHAITRAAYSQDVDVWTVDDNDTGTDTASAADGGDSQ”, the protein production result is on record as “failed”.
Next, “MDDVKDKLKGFMKKVNLSSSSGKFKGQGRVLGSSSSSSAPPVNPIQNRFNSSQAPNPTPRPKPNPNPLPEKPLSSSDQKISGSTRNPDHDPVRAPQDGFDPYGAFITSSNRSQNGYSLSMFECPICKNPFTSEEEVSVHVESCLGDTNGDESSFEKDNNDNDKSEMEKLVVVYLSGKPSESSIDVLLRLFKNIVKEPENAKFRKVRMSNAKIKEAIGDVAGGVELLELVGFELKEENDEIWAVMDVPSEEQSILINKVVGYLEKRKTESSGSSAQVMEPVAPKKIDRENGCFLVQIRVFFSVSENVASRIEVPDSFYSLSADEIKREADLRRKKIAESQLLIPRSYKEKQAKAARKRYKRSMIRVQFPDGVVLQGVFAPWEPTFALYEFVSSALKEPSLQFELLDPVLVKRRVIPHTPAPGQKPITLEDEELVPSALIRFRPIETDSLVFTGLRNELLEISEPLS”: “failed”; “HGILIRSSAFLEELADLTSLVVDKTGTLTHGSLRLQALRLADAAEEASVLRLAASLGAASSHPVSRALAALAAHDAYHPLSDIRERQGFGVVARTAAGEAALGRPELFQQLGIDASEVPEHEGPIAGIALDGRFLGWLLLADSVRAEAAEALADLRELGLGRQLLLTGDRRAVADAVAKQVGIRQLVAQALPEDKLRQVGAEIGSGFRPMVVGDGINDSLALKAGVVGVAMGAGGADIALASADIVLIGSDLRRLGTCVRLSR”: “failed”; “IKERVKMEVIGLEIPLISGNEDYTLAELISTYPLEDKDVIVIAETVVSKIEKNVILKNEITPSNEAMELSKKLGKEPEVVQVILDESNEIVKLGPNFIITETKHGFVCANSGVDESNTSKGIKPLPKNPDKSAEEIRMGIEKITGKKVGVIINDSMGRPFRKGSCGIAIGVSGVCGLWDRKGEKDLFGRELKTTEVGIADELAATASAVMGQSNEGIPLVIIRNAPVPFTNGTGKELIRKKEEDVFR”: “failed”.
